Biological target: hIL-1βQ15G (human)
Test: ELISA; apparent Kd

hIL-1βQ15G (human), sequence (chain, as listed by the source Q15G): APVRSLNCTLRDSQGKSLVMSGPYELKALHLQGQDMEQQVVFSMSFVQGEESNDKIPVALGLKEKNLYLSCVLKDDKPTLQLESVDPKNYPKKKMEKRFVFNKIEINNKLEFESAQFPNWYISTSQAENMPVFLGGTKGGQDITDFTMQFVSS

Kd: 27.3 nM
B1: Q15Kcr-G8-mFc (Fc fusion)
chain 1: EVQLQQSGAELVKPGASVKLSCTASDFNIKDTYIHWVKQRPEQGLEWIGRIDPADGNTKYDPKFQGKATITADTSSNTAYLQLSSLTSEDTAVYYCAIHYYGSFPYWGQGTLVTVSA
chain 2: DIVMTQAHKFMSTSVGDRVSITCQASQDVGTAVAWYQQKPGQSPKLLIYWASTRHTGVPDRFTGSGSGTDFTLTISNVQSEDLADYFCQQYSSYPYTFGGGTKLEIK
